T1: Feline Leukemia Virus subgroup C Receptor 1b (FLVCR1b) (human (endogenous in HEK293T), UniProt Q9Y5Y0-2 1-279)
T1 construct: FLVCR1 isoform b, the mitochondrially targeted version of FLVCR1a that is missing the first six transmembrane helices; endogenous in human HEK293T cells, detected or precipitated with an anti-FLVCR antibody (Novus NB100-1481); The antibody is named as against human FLVCR / FLVCR1; also called Feline leukemia virus subgroup C receptor 1 isoform b; source: endogenous, HEK293T cells; endogenous, …
T1 sequence (looked up): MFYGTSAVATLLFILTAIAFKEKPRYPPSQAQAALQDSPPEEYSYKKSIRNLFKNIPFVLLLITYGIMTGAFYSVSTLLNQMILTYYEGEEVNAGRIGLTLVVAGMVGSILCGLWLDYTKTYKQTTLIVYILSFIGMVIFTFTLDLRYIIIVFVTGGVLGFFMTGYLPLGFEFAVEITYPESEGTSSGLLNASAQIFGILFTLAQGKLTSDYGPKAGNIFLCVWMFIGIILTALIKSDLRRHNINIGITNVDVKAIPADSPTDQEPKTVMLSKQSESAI

T2: FLVCR1b in isolated mouse mitochondria (mouse (endogenous in brain and liver …, UniProt B2RXV4-2 1-279))
T2 construct: Detected with the antibody named as against FLVCR1 (Novus NB100-1481); also called mitochondrial FLVCR1b; source: endogenous, mitochondria isolated from mouse brain and liver
T2 sequence (looked up): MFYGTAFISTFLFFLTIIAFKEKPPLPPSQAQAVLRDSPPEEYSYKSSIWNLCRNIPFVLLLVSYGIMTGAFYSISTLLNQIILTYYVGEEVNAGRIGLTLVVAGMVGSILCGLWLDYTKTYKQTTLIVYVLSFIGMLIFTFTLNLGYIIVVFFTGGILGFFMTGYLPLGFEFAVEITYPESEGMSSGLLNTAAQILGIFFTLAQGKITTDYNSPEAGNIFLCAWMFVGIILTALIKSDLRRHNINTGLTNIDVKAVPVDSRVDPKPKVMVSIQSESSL

B1: glyceraldehyde phosphate dehydrogenase (GAPDH) (natural protein)
chain: not shown
notes: Glyceraldehyde 3-phosphate dehydrogenase, endogenous in the human HEK293T cell line, detected with an anti-GAPDH antibody; In the experiments on isolated mouse mitochondria the GAPDH came with HEK293T cytosol, but mouse GAPDH that stayed on the mitochondria cannot be ruled out; also called Glyceraldehyde 3-phosphate dehydrogenase; source: endogenous, HEK293T cells; endogenous, solubilised HEK293T …

Legend:
Settings in all cases: partners not purified
[1] = target: T1, Feline Leukemia Virus subgroup C …; assay: proximity ligation; Duolink PLA on HEK293T cells transfected with HA-tagged GAPDH wild type or H53A, antibodies to HA and FLVCR1; resting and at times after δ-ALA/Fe; background = one primary antibody alone
[2] = target: B1; assay: proximity ligation; Duolink PLA on fixed, permeabilised heme-depleted HEK293T cells, pairs of primary antibodies to the endogenous proteins; 0, 15, 30, 45, 60 and 120 min after δ-ALA (1 mM) and ferric citrate (100 μM); also in cells with control siRNA or knock-down of TANGO2 or GAPDH; background = one primary antibody alone, set to 1.0
[3] = target: T1, Feline Leukemia Virus subgroup C …; assay: as above
[4] = target: T2, FLVCR1b in isolated mouse mitochondria; assay: proximity ligation; Duolink PLA on mitochondria from mouse brain and liver, before or after incubation with δ-ALA and mitochondria-free HEK293T cytosol (control or TANGO2 knock-down cells) at 37 °C, reisolated and placed on poly-D-lysine coverslips

Row | PLA signal over background, resting cells [1] | PLA signal over background [2] | PLA signal over background, resting cells [3] | fold increase of PLA signal 30 min after δ-ALA/Fe [3] | fold increase of PLA signal after 30 min with δ-ALA and cytosol [4] | Binder
1 | ~2 fold over background |  |  |  |  | H53A point mutant variant of HA-hGAPDH (natural protein, human GAPDH with H53A, expressed from the H53A variant of pRK5-TC-hGAPDH-HA; also called H53A HA-GAPDH; HA-H53A; source: HEK293T, transfected (H53A variant of pRK5-TC-hGAPDH-HA), in cells; in solubilised mitochondria) not shown
2 |  | 2.5 fold over background | 5 fold over background |  |  | Transport and Golgi Organization 2 (TANGO2) protein (natural protein, human (endogenous in HEK293T), UniProt Q6ICL3 1-276, looked up, TANGO2, endogenous in human HEK293T cells, detected with an anti-TANGO2 antibody (Invitrogen PA5-51818); also called Transport and Golgi organization 2 homolog; T2; source: endogenous, HEK293T cells) MCIIFFKFDPRPVSKNAYRLILAANRDEFYSRPSKLADFWGNNNEILSGLDMEEGKEGGTWLGISTRGKLAALTNYLQPQLDWQARGRGELVTHFLTTDVDSLSYLKKVSMEGHLYNGFNLIAADLSTAKGDVICYYGNRGEPDPIVLTPGTYGLSNALLETPWRKLCFGKQLFLEAVERSQALPKDVLIASLLDVLNNEEAQLPDPAIEDQGGEYVQPMLSKYAAVCVRCPGYGTRTNTIILVDADGHVTFTERSMMDKDLSHWETRTYEFTLQS
3 |  |  | 2.5 fold over background | 18 fold | 4 fold | B1

Reference: PMC11092803, “Heme allocation in eukaryotic cells relies on mitochondrial heme export through FLVCR1b to cytosolic GAPDH” (Research Square, 2024)
